The values below come from article PMC2885556.

The assay concerns the target wild-type E. coli ClpX (E. coli) (UniProt P0A6H1).
UniProt P0A6H1, sequence (P0A6H1 whole entry): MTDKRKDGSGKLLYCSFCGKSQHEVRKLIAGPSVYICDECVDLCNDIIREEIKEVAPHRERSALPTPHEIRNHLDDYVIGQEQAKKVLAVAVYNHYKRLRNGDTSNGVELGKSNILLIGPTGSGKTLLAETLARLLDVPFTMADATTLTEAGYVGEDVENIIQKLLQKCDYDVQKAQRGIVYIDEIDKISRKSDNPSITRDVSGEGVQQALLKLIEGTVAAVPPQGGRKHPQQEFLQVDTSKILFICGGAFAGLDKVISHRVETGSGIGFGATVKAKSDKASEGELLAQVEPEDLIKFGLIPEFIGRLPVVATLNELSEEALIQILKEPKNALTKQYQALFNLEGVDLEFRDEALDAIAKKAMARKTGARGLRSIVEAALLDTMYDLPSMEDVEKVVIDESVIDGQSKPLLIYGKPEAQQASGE

On to “wild-type E. coli ClpP with a C-terminal His6 tag (from UniProt P0A6G7 15-207) (enzyme)”, for which the rate of decapeptide cleavage by ClpP with ClpX•ATPγS, against ClpP alone was determined as 9 fold.
